The values that follow come from the supplement of paper PMC5998384.

The subject of data set [1] is HeLa Kyoto. As to the kind of experiment: solubility in G1/S (NP-40 vs SDS abundance) (log2 ratio); higher = more soluble. Conditions: cell cycle stage: G1/S.
Data set [2] concerns HeLa Kyoto. The experiment in a line: melting temperature (median over replicates), in situ; higher = more thermally stable.
Data set [3] relates to HeLa Kyoto. The experiment in a line: solubility change mitosis vs G1/S (difference of NP-40 vs SDS log2 ratios) (log2 ratio difference); higher = more soluble in mitosis.
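For melting temperature (median over replicates), in situ in this document: HeLa Kyoto cells synchronized by double thymidine or nocodazole block, proteins quantified by TMT10plex mass spectrometry, three independent biological replicates.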
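For solubility change mitosis vs G1/S (difference of NP-40 vs SDS log2 ratios) in this document: synchronized HeLa Kyoto cells (double thymidine block for G1/S, nocodazole release for mitosis), protein amounts in NP-40 versus SDS lysates quantified by mass spectrometry, three biological replicates.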
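For solubility in G1/S (NP-40 vs SDS abundance) in this document: HeLa Kyoto cells arrested at G1/S by double thymidine block, proteins quantified by TMT10plex mass spectrometry in mild NP-40 versus SDS extracts, three biological replicates.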

Consider “MDLHMMNCELLATCSALGYLEGDTYHKEPDCLESVKDLIRYLRHEDETRDVRQQLGAAQILQSDLLPILTQHHQDKPLFDAVIRLMVNLTQPALLCFGNLPKEPSFRHHFLQVLTYLQAYKEAFASEKAFGVLSETLYELLQLGWEERQEEDNLLIERILLLVRNILHVPADLDQEKKIDDDASAHDQLLWAIHLSGLDDLLLFLASSSAEEQWSLHVLEIVSLMFRDQNPEQLAGVGQGRLAQERSADFAELEVLRQREMAEKKTRALQRGNRHSRFGGSYIVQGLKSIGERDLIFHKGLHNLRNYSSDLGKQPKKVPKRRQAARELSIQRRSALNVRLFLRDFCSEFLENCYNRLMGSVKDHLLREKAQQHDETYYMWALAFFMAFNRAASFRPGLVSETLSVRTFHFIEQNLTNYYEMMLTDRKEAASWARRMHLALKAYQELLATVNEMDISPDEAVRESSRIIKNNIFYVMEYRELFLALFRKFDERCQPRSFLRDLVETTHLFLKMLERFCRSRGNLVVQNKQKKRRKKKKKVLDQAIVSGNVPSSPEEVEAVWPALAEQLQCCAQNSELSMDSVVPFDAASEVPVEEQRAEAMVRIQDCLLAGQAPQALTLLRSAREVWPEGDVFGSQDISPEEEIQLLKQILSAPLPRQQGPEERGAEEEEEEEEEEEEELQVVQVSEKEFNFLDYLKRFACSTVVRAYVLLLRSYQQNSAHTNHCIVKMLHRLAHDLKMEALLFQLSVFCLFNRLLSDPAAGAYKELVTFAKYILGKFFALAAVNQKAFVELLFWKNTAVVREMTEGYGSLDDRSSSRRAPTWSPEEEAHLRELYLANKDVEGQDVVEAILAHLNTVPRTRKQIIHHLVQMGLADSVKDFQRKGTHIVLWTGDQELELQRLFEEFRDSDDVLGHIMKNITAKRSRARIVDKLLALGLVAERRELYKKRQKKLASSILPNGAESLKDFCQEDLEEEENLPEEDSEEEEEGGSEAEQVQGSLVLSNENLGQSLHQEGFSIPLLWLQNCLIRAADDREEDGCSQAVPLVPLTEENEEAMENEQFQQLLRKLGVRPPASGQETFWRIPAKLSPTQLRRAAASLSQPEEEQKLQPELQPKVPGEQGSDEEHCKEHRAQALRALLLAHKKKAGLASPEEEDAVGKEPLKAAPKKRQLLDSDEEQEEDEGRNRAPELGAPGIQKKKRYQIEDDEDD [TIMELESS]”, for which the “solubility in G1/S (log2)” value in the data set with HeLa Kyoto [1] is -0.204. Further, the figures for the melting temperature with HeLa Kyoto [2] (cell cycle stage: G1/S) and in the data set with HeLa Kyoto [2] (cell cycle stage: mitosis) were 49.5 °C and 49.2 °C, respectively. The “solubility change mitosis (log2)” value in the data set on HeLa Kyoto [3] is -0.0762.
“MDNLSSEEIQQRAHQITDESLESTRRILGLAIESQDAGIKTITMLDEQKEQLNRIEEGLDQINKDMRETEKTLTELNKCCGLCVCPCNRTKNFESGKAYKTTWGDGGENSPCNVVSKQPGPVTNGQLQQPTTGAASGGYIKRITNDAREDEMEENLTQVGSILGNLKDMALNIGNEIDAQNPQIKRITDKADTNRDRIDIANARAKKLIDS [SNAP23]”: the “solubility in G1/S (log2)” value in the data set on HeLa Kyoto [1] was -0.00465. In addition, the melting temperature with HeLa Kyoto [2] (cell cycle stage: G1/S) was 54.8 °C; in the data set on HeLa Kyoto [2] (cell cycle stage: mitosis), 54 °C. In addition, the “solubility change mitosis (log2)” value in the data set on HeLa Kyoto [3] worked out at 0.381.
As for “MDTLDRVVKPKTKRAKRFLEKREPKLNENIKNAMLIKGGNANATVTKVLKDVYALKKPYGVLYKKKNITRPFEDQTSLEFFSKKSDCSLFMFGSHNKKRPNNLVIGRMYDYHVLDMIELGIENFVSLKDIKNSKCPEGTKPMLIFAGDDFDVTEDYRRLKSLLIDFFRGPTVSNIRLAGLEYVLHFTALNGKIYFRSYKLLLKKSGCRTPRIELEEMGPSLDLVLRRTHLASDDLYKLSMKMPKALKPKKKKNISHDTFGTTYGRIHMQKQDLSKLQTRKMKGLKKRPAERITEDHEKKSKRIKKN [RPF2]”, the “solubility in G1/S (log2)” value in the data set on HeLa Kyoto [1] is -2.68. Moreover, the melting temperature with HeLa Kyoto [2] (cell cycle stage: mitosis) came to 53.4 °C. In the data set on HeLa Kyoto [3], the “solubility change mitosis (log2)” value was 1.42.
The like results for “MEADSPAGPGAPEPLAEGAAAEFSSLLRRIKGKLFTWNILKTIALGQMLSLCICGTAITSQYLAERYKVNTPMLQSFINYCLLFLIYTVMLAFRSGSDNLLVILKRKWWKYILLGLADVEANYVIVRAYQYTTLTSVQLLDCFGIPVLMALSWFILHARYRVIHFIAVAVCLLGVGTMVGADILAGREDNSGSDVLIGDILVLLGASLYAISNVCEEYIVKKLSRQEFLGMVGLFGTIISGIQLLIVEYKDIASIHWDWKIALLFVAFALCMFCLYSFMPLVIKVTSATSVNLGILTADLYSLFVGLFLFGYKFSGLYILSFTVIMVGFILYCSTPTRTAEPAESSVPPVTSIGIDNLGLKLEENLQETHSAVL [SLC35F2]” were, in that order, 0.147, 56.1 °C and -0.182.
On to “MEDSGKTFSSEEEEANYWKDLAMTYKQRAENTQEELREFQEGSREYEAELETQLQQIETRNRDLLSENNRLRMELETIKEKFEVQHSEGYRQISALEDDLAQTKAIKDQLQKYIRELEQANDDLERAKRATIMSLEDFEQRLNQAIERNAFLESELDEKENLLESVQRLKDEARDLRQELAVQQKQEKPRTPMPSSVEAERTDTAVQATGSVPSTPIAHRGPSSSLNTPGSFRRGLDDSTGGTPLTPAARISALNIVGDLLRKVGALESKLASCRNLVYDQSPNRTGGPASGRSSKNRDGGERRPSSTSVPLGDKGLDTSCRWLSKSTTRSSSSC [NDE1]”, for which, in the data set on HeLa Kyoto [1], the “solubility in G1/S (log2)” value came out at 0.236. Further, the melting temperature in the data set on HeLa Kyoto [2] (cell cycle stage: G1/S) turned out to be 54.1 °C; in the data set with HeLa Kyoto [2] (cell cycle stage: mitosis), 53.7 °C. Besides, in the data set with HeLa Kyoto [3], the “solubility change mitosis (log2)” value is 0.568.
Regarding “MEEYHRHCDEVGFNAEEAHNIVKECVDGVLGGEDYNHNNINQWTASIVEQSLTHLVKLGKAYKYIVTCAVVQKSAYGFHTASSCFWDTTSDGTCTVRWENRTMNCIVNVFAIAIVL [DYNLT3]”, in the data set with HeLa Kyoto [1], the “solubility in G1/S (log2)” value is -0.189. The melting temperature came to 53.3 °C in the data set on HeLa Kyoto [2] (cell cycle stage: G1/S) and 54.1 °C with HeLa Kyoto [2] (cell cycle stage: mitosis). Besides, the “solubility change mitosis (log2)” value in the data set on HeLa Kyoto [3] is -0.243.
